In US20230226223A1 (SOLA BIOSCIENCES, published 2023):
Read-outs that look alike come from different tables or passages of the source.

B1: Construct 59, JB13-QBP1-QBP1 (designed binder)
chain: MGQDYYSVLGITRNSEDAQIKQAYRRLALKHHPLKSNEPSSAEIFRQIAEAYDVLSDPMKRGIYDKFGEEGLKGGDIGGGGSGGGGSGGGGSAAASNWKWWPGIFDLEGDYKDDDDKGSRAAASNWKWWPGIFDLE
B2: Construct 61, JC7-QBP1-QBP1 (designed binder)
chain: MDYYKILGVDKNASEDEIKKAYRKRALMHHPDRHSGASAEVQKEEEKKFKEVGEAFTILSDPKKKTRYDSGQDIGGGGSGGGGSGGGGSAAASNWKWWPGIFDLEGDYKDDDDKGSRAAASNWKWWPGIFDLE
B3: Construct 12, JB1(1-57)-2XQBP1 (designed binder)
chain: MGKDYYQTLGLARGASDEEIKRAYRRQALRYHPDKNKEPGAEEKFKEIAEAYDVLSDDIGGGGSGGGGSGGGGSGGGGSAAASNWKWWPGIFDGLESNWKWWPGIFD
B4: Construct 34, JB1-QBP1-QBP1 (1) (designed binder)
chain: MGKDYYQTLGLARGASDEEIKRAYRRQALRYHPDKNKEPGAEEKFKEIAEAYDVLSDPRKREIFDRYGEEGLKGSGGGGSGGGGSGGGGSGGGGSAAASNWKWWPGIFDLEGDYKDDDDKGSRAAASNWKWWPGIFDLE
B5: Construct 62, DnaJ-QBP1-QBP1 (designed binder)
chain: MAKQDYYEILGVSKTAEEREIRKAYKRLAMKYHPDRNQGDKEAEAKFKEIKEAYEVLTDSQKRAAYDQYGHADIGGGGSGGGGSGGGGSAAASNWKWWPGIFDLEGDYKDDDDKGSRAAASNWKWWPGIFDLE
B6: Construct 15, JB1-2XQBP1 (no flexible linker) (designed binder)
chain: MGKDYYQTLGLARGASDEEIKRAYRRQALRYHPDKNKEPGAEEKFKEIAEAYDVLSDPRKREIFDRYGEEGLKGSDIAAASNWKWWPGIFDGLESNWKWWPGIFD
B7: Construct 16, JB1-2XQBP1 (rigid linker) (designed binder)
chain: MGKDYYQTLGLARGASDEEIKRAYRRQALRYHPDKNKEPGAEEKFKEIAEAYDVLSDPRKREIFDRYGEEGLKGSDIEAAAKAAASNWKWWPGIFDGLESNWKWWPGIFD
B8: Construct 14, JB1(1-108)-2XQBP1 (designed binder)
chain: MGKDYYQTLGLARGASDEEIKRAYRRQALRYHPDKNKEPGAEEKFKEIAEAYDVLSDPRKREIFDRYGEEGLKGSGPSGGSGGGANGTSFSYTFHGDPHAMFAEFFGGDIGGGGSGGGGSGGGGSGGGGSAAASNWKWWPGIFDGLESNWKWWPGIFD
B9: Construct 4, JB1-2XQBP1 (designed binder)
chain: MGKDYYQTLGLARGASDEEIKRAYRRQALRYHPDKNKEPGAEEKFKEIAEAYDVLSDPRKREIFDRYGEEGLKGSDIGGGGSGGGGSGGGGSGGGGSAAASNWKWWPGIFDGLESNWKWWPGIFD

Assays:
Experiment in all cases: cell-based or functional assay
[1] = molecular target: GFP-HTTQ74 reporter construct
[2] = molecular target: GFP-HTTQ74 reporter construct; remark: listed apart in the source
[3] = molecular target: GFP-HTTQ74 reporter construct; remark: listed apart in the source
[4] = molecular target: GFP-HTTQ74 reporter construct; remark: listed apart in the source
[5] = molecular target: GFP-HTTQ74 reporter construct; remark: listed apart in the source

Row | Binder | Reduction (%) of protein aggregation [1] [%] | % Aggregation (relative to Q74 alone), filter trap assay [2] [%] | % Aggregation (relative to Q74 alone), filter trap assay [4] [%] | further results
1 | B1 | -27 | – | – | –
2 | B2 | 89 | – | – | –
3 | B3 | – | 40.3 | – | –
4 | B4 | 96.1 | – | – | Reduction of Aggregation (%), filter trap assay [3]: 96.3%
5 | B5 | 15.7 | – | – | –
6 | B6 | – | – | 24.5 | –
7 | B7 | – | – | 17.6 | –
8 | B8 | – | 32 | – | –
9 | B9 | – | 29.7 | 24.9 | Reduction of Aggregation (%), filter trap assay [3]: 24.9%; % Aggregation (relative to Q74 alone), filter trap assay [5]: 9.86%
